Assay results reported in IntAct's records for PubMed 19494114.

B1: Receptor-type tyrosine-protein phosphatase eta (Homo sapiens), Q12913 (parent)
chain: MKPAAREARLPPRSPGLRWALPLLLLLLRLGQILCAGGTPSPIPDPSVATVATGENGITQISSTAESFHKQNGTGTPQVETNTSEDGESSGANDSLRTPEQGSNGTDGASQKTPSSTGPSPVFDIKAVSISPTNVILTWKSNDTAASEYKYVVKHKMENEKTITVVHQPWCNITGLRPATSYVFSITPGIGNETWGDPRVIKVITEPIPVSDLRVALTGVRKAALSWSNGNGTASCRVLLESIGSHEELTQDSRLQVNISGLKPGVQYNINPYLLQSNKTKGDPLGTEGGLDASNTERSRAGSPTAPVHDESLVGPVDPSSGQQSRDTEVLLVGLEPGTRYNATVYSQAANGTEGQPQAIEFRTNAIQVFDVTAVNISATSLTLIWKVSDNESSSNYTYKIHVAGETDSSNLNVSEPRAVIPGLRSSTFYNITVCPVLGDIEGTPGFLQVHTPPVPVSDFRVTVVSTTEIGLAWSSHDAESFQMHITQEGAGNSRVEITTNQSIIIGGLFPGTKYCFEIVPKGPNGTEGASRTVCNRTVPSAVFDIHVVYVTTTEMWLDWKSPDGASEYVYHLVIESKHGSNHTSTYDKAITLQGLIPGTLYNITISPEVDHVWGDPNSTAQYTRPSNVSNIDVSTNTTAATLSWQNFDDASPTYSYCLLIEKAGNSSNATQVVTDIGITDATVTELIPGSSYTVEIFAQVGDGIKSLEPGRKSFCTDPASMASFDCEVVPKEPALVLKWTCPPGANAGFELEVSSGAWNNATHLESCSSENGTEYRTEVTYLNFSTSYNISITTVSCGKMAAPTRNTCTTGITDPPPPDGSPNITSVSHNSVKVKFSGFEASHGPIKAYAVILTTGEAGHPSADVLKYTYEDFKKGASDTYVTYLIRTEEKGRSQSLSEVLKYEIDVGNESTTLGYYNGKLEPLGSYRACVAGFTNITFHPQNKGLIDGAESYVSFSRYSDAVSLPQDPGVICGAVFGCIFGALVIVTVGGFIFWRKKRKDAKNNEVSFSQIKPKKSKLIRVENFEAYFKKQQADSNCGFAEEYEDLKLVGISQPKYAAELAENRGKNRYNNVLPYDISRVKLSVQTHSTDDYINANYMPGYHSKKDFIATQGPLPNTLKDFWRMVWEKNVYAIIMLTKCVEQGRTKCEEYWPSKQAQDYGDITVAMTSEIVLPEWTIRDFTVKNIQTSESHPLRQFHFTSWPDHGVPDTTDLLINFRYLVRDYMKQSPPESPILVHCSAGVGRTGTFIAIDRLIYQIENENTVDVYGIVYDLRMHRPLMVQTEDQYVFLNQCVLDIVRSQKDSKVDLIYQNTTAMTIYENLAPVTTFGKTNGYIA

Variants of: B1
Conditions: with mk03_human MAPK3, P27361
Sequence of mk03_human MAPK3, P27361 (P27361 whole entry): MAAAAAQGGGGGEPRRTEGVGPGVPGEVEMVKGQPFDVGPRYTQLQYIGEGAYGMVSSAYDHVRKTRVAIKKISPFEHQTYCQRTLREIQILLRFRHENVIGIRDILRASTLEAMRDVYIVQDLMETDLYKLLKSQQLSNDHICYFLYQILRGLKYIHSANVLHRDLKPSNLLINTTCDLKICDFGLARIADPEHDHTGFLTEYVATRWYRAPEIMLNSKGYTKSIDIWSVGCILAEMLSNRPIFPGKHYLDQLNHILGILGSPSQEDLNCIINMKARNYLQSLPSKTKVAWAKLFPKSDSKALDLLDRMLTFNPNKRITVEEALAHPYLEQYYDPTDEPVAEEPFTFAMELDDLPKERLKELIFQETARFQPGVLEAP

| Variant | effect of a mutation on the interaction |
| --- | --- |
| K1031A | decreasing interaction |
